One may read the EC50 as the concentration at which the effect is half-maximal. Low readings indicate higher potency in that assay, high ones lower potency in that assay. The EC50 (read off the curve) is the concentration at which the effect is half-maximal. A high value points to weaker potency.

Results on 1 molecule are retold here after patent publication US20230365684A1.

Test [1] addresses human CD33 on cells (MOLM-13, Kasumi-1, OCI-AML-3, Kasumi-3) (human) (UniProt P20138). The test is described as follows: flow cytometry on Kasumi-1 cells, 4 °C, serial dilutions of the antibody. For orientation: In flow cytometry, cells or beads pass a laser one at a time.
The target is the same in test [2]. The test is described as follows: flow cytometry on MOLM-13 cells, 4 °C, serial dilutions of the antibody.
The target is the same in test [3]. The test is described as follows: flow cytometry on MOLM-13 cells, 4 °C, detection with PE goat F(ab')2 anti-human IgG-Fc.
Test [4] shares this target. The test is described as follows: flow cytometry on OCI-AML-3 cells, 4 °C, serial dilutions of the antibody.

Sequence of human CD33 on cells (MOLM-13, Kasumi-1, OCI-AML-3, Kasumi-3) (human) (P20138 18-364): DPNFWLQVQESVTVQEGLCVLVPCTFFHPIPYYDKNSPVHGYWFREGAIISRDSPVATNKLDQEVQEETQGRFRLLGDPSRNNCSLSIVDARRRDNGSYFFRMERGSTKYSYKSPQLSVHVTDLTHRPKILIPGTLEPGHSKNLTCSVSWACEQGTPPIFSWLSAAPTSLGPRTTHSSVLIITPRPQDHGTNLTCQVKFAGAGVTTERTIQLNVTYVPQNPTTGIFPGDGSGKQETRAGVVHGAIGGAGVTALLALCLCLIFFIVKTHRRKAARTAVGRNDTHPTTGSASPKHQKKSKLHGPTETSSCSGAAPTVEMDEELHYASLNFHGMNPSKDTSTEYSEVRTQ

B1: Lintuzumab (antibody, part only; not given: constant regions, V domains shown, not shown: another chain or arm of the molecule)
VH: QVQLVQSGAEVKKPGSSVKVSCKASGYTFTDYNMHWVRQAPGQGLEWIGYIYPYNGGTGYNQKFKSKATITADESTNTAYMELSSLRSEDTAVYYCARGRPAMDYWGQGTLVTVSS
VL: DIQMTQSPSSLSASVGDRVTITCRASESVDNYGISFMNWFQQKPGKAPKLLIYAASNQGSGVPSRFSGSGSGTDFTLTISSLQPDDFATYYCQQSKEVPWTFGQGTKVEIK
As to B1, the EC50 in test [1] was found to be 0.34 nM; in test [2], 0.31 nM; in test [4], 0.9 nM. This molecule displayed an EC50 (read off the curve) in test [3] of 0.04 µg/mL.
